Changes are numbered by the printed parent chain.

For data set [1], the target named is T1, MurT/GatD (Streptococcus pneumoniae, UniProt Q8DNZ8+Q8DNZ9).
T1 construct: co-expressed in E. coli BL21 Star (DE3) from modified pET-30; MurT with N-terminal poly-His tag (cleavage not mentioned), GatD untagged; MurT/GatD heterodimer (four complexes in the asymmetric unit); MurT residues 1-42 present but not visible
T1 sequence (Q8DNZ9 1-447): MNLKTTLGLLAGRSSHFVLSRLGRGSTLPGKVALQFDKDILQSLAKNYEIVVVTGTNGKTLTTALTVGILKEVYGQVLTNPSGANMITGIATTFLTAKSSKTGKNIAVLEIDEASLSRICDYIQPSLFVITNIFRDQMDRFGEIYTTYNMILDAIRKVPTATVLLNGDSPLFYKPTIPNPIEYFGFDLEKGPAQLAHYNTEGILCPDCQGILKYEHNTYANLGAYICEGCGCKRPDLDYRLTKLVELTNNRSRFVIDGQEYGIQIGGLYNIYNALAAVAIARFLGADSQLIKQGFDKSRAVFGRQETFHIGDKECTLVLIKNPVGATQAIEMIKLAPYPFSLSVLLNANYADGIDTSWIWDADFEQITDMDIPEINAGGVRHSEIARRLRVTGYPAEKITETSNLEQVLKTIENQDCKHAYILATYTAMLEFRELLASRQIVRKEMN
T1 sequence (Q8DNZ8 1-260): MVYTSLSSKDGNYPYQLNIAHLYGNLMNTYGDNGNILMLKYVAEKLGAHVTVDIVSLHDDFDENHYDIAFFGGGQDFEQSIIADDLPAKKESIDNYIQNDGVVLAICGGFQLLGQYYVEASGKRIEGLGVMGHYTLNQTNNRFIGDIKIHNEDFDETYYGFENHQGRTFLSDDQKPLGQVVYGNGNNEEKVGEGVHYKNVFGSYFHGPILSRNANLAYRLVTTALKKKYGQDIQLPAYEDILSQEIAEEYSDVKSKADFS
The data set is described as follows: coupled ATPase assay (pyruvate kinase / lactate dehydrogenase, NADH at […] nm), initial velocities. The data set is classed as biochemical. As to conditions: 2 mM ATP, 10 mM L-Gln, 10 mM MgCl2, 150 mM NaCl, 50 mM HEPES, 2 mM TCEP, 1% DDM, pH 7.5, 30 °C; MurT active site; read-out: Initial velocities method / Apparent KM.

Data set [2] addresses MurT variants with substituted conserved residues ("in most cases"). The data set is described as follows: co-purification (metal-affinity chromatography of His-tagged MurT, SEC; SDS-PAGE with Coomassie stain, ratio of bands); His-tagged MurT (wild type or variant) co-expressed with untagged GatD in E. coli; lysate loaded on HisTrap FF in 50 mM HEPES pH 7.5, 300 mM NaCl, 10 mM MgCl2, 25 mM imidazole, 2 mM TCEP; then SEC.

In data set [3] the target is T1, MurT/GatD. The data set is described as follows: X-ray crystal structure, […] Å. It counts as binding. As to conditions: tentative assignment to residual density near GatD Cys107; no glutamine added, presumably carried over from E. coli.
Substrate in data set [4]: Nc1ncnc2c1ncn2[C@@H]1O[C@H](COP(=O)(O)OP(=O)(O)OP(=O)(O)O)[C@@H](O)[C@H]1O
The data set is described as follows: purified protein. The following applies: 10 mM L-Gln, 10 μM lipid II (below its apparent KM), 10 mM MgCl2, 150 mM NaCl, 50 mM HEPES, 2 mM TCEP, 1% DDM, pH 7.5, 30 °C, MurT active site. It counts as biochemical, Streptococcus pneumoniae.

Substrate in data set [5]: NC(=O)CC[C@H](N)C(=O)O
Put plainly: purified protein. The data set is classed as biochemical, Streptococcus pneumoniae. As to conditions: 2 mM ATP, 10 μM lipid II (below its apparent KM), 10 mM MgCl2, 150 mM NaCl, 50 mM HEPES, 2 mM TCEP, 1% DDM, pH 7.5, 30 °C, GatD glutaminase site.

Data set [6] addresses T2, MurT 4C4S variant (the four cysteines of the cysteine tetrad replaced by serines), with N-terminal … (Streptococcus pneumoniae, UniProt Q8DNZ9 1-447, 4C4S (Cys205 to Ser) | 4C4S (Cys208 to Ser) | 4C4S (Cys227 to Ser) | 4C4S …).
T2 construct: MurT, Streptococcus pneumoniae, with cysteines 205, 208, 227 and 230 replaced by serines; PDB 6FQB holds the wild-type parent; also called MT4C4S; 4C4S MurT/GatD; source: E. coli BL21 Star (DE3), co-expressed with GatD; purified (HisTrap, SEC); not shown: poly-histidine, N-terminal, kept
T2 sequence: T1 sequence (Q8DNZ9 1-447) with C205S, C208S, C227S, C230S
Put plainly: co-purification (metal-affinity chromatography of His-tagged MurT, SEC; SDS-PAGE with Coomassie stain, ratio of bands); His-tagged MurT (wild type or variant) co-expressed with untagged GatD in E. coli; lysate loaded on HisTrap FF in 50 mM HEPES pH 7.5, 300 mM NaCl, 10 mM MgCl2, 25 mM imidazole, 2 mM TCEP; then SEC. As to conditions: partners not purified.

Data set [7] addresses T3, MurT from Streptococcus pneumoniae, wild type, with N-terminal poly-histidine tag (Streptococcus pneumoniae, UniProt Q8DNZ9 1-447).
T3 construct: MurT, subunit of the lipid II amidotransferase MurT/GatD, Streptococcus pneumoniae; N-terminal region 1-42 present by mass spectrometry though not visible in the crystal; central domain 43-302, C-terminal domain 303-439; also called MT; source: E. coli BL21 Star (DE3), co-expressed with GatD from a modified pET-30 plasmid; purified (HisTrap, Q Sepharose, SEC; anion exchange omitted for activity …)
T3 sequence: T1 sequence (Q8DNZ9 1-447)
Described as above. As to conditions: partners not purified.

On to lipid II, for which, in data set [1], the Km was 220 ± 60 µM. As for “GatD from Streptococcus pneumoniae, wild type, without tag (from UniProt Q8DNZ8 1-260) (enzyme)”, the ratio of MurT/GatD bands in data set [2] was 1.78.

As for `NC(=O)CC[C@H](N)C(=O)O` [L-Gln], the “X-ray crystal structure, 3.0 Å” value in data set [3] is “glutamine was thus tentatively placed in the residual density observed in GatD active site”.

B1: MurT/GatD (Streptococcus pneumoniae R6) (protein)
chain 1: T1 sequence (Q8DNZ9 1-447)
chain 2: T1 sequence (Q8DNZ8 1-260)
notes: co-expressed in E. coli BL21 Star (DE3) from modified pET-30; MurT with N-terminal poly-His tag (cleavage not mentioned), GatD untagged; MurT/GatD heterodimer (four complexes in the asymmetric unit); MurT residues 1-42 present but not visible
In the case of B1, the Km in data set [4] turned out to be 16 ± 2 µM; in data set [5], 78 ± 8 µM.

B2: GatD from Streptococcus pneumoniae, wild type, without tag (enzyme)
chain: T1 sequence (Q8DNZ8 1-260)
notes: GatD, class I glutaminase subunit of the MurT/GatD amidotransferase, Streptococcus pneumoniae; also called GD; GatDSpn; source: E. coli BL21 Star (DE3), co-expressed with His-tagged MurT from a modified pET-30 plasmid; co-purified with MurT (HisTrap, Q Sepharose, SEC)
For B2, the entries for the “ratio of the Coomassie-stained MurT/GatD bands after SDS-PAGE” value in data set [6] and in data set [7] were 1.4 and 1.78, respectively.

The values above are taken from article PMC6085368, “Structure of the essential peptidoglycan amidotransferase MurT/GatD complex from Streptococcus pneumoniae” (Nature Communications, 2018).
